This note sets out measurements from publication PMC6939650 (Molecules and Cells, 2019).

Broadly, the stoichiometry N is a count of units in the complex or per binding partner.

The data set concerns the molecule itself. Description: SEC-MALS. (In general: SEC sorts molecules by how far they enter the pores of the column.)

B1: MexT regulatory domain (domain or fragment, Pseudomonas aeruginosa, UniProt Q9I0Z0 95-304, looked up)
chain: PATSTAVFRIGLSDDVEFGLLPPLLRRLRAEAPGIVLVVRRANYLLMPNLLASGEISVGVSYTDELPANAKRKTVRRSKPKILRADSAPGQLTLDDYCARPHALVSFAGDLSGFVDEELEKFGRKRKVVLAVPQFNGLGTLLAGTDIIATVPDYAAQALIAAGGLRAEDPPFETRAFELSMAWRGAQDNDPAERWLRSRISMFIGDPDSL
Consider B1, for which the “stoichiometry N” value came to 2.
